{
  "source": "paper PMC12222027",
  "about": "“In situ structure of a bacterial flagellar motor at subnanometre resolution reveals adaptations for increased torque” (Nature Microbiology, 2025)",
  "key": {"[1]": {"molecular_target": "FlgP (basal disk protein, C. jejuni 81-176, in the motor in situ) (C. jejuni 81-176 (endogenous in minicells))", "assay": "cryo-EM structure; in situ single-particle analysis of motors in C. jejuni ΔflhG ΔflaAB minicells; C17 focused refinement of the periplasmic scaffold and first basal disk ring (7.9 Å); AlphaFold2 models docked or flexibly fitted into the map"}, "[2]": {"molecular_target": "the molecule itself", "assay": "cryo-EM structure; in situ single-particle analysis of motors in C. jejuni ΔflhG ΔflaAB minicells; C17 focused refinement of the periplasmic scaffold and first basal disk ring (7.9 Å); AlphaFold2 models docked or flexibly fitted into the map"}},
  "data": [
    {"molecule": "FlgP (basal disk protein, C. jejuni 81-176, in the motor in situ) (natural protein)", "values": [
      {"measurement": "stoichiometry N", "setting": "[1]", "result": 51}
    ]},
    {"molecule": "FliL (C. jejuni 81-176, endogenous) (natural protein, FliL, flagellar protein forming an arc of four copies around the MotB linker in each asymmetric unit; source: endogenous, C. jejuni 81-176: ΔflhG ΔflaAB minicells imaged in situ; lysates of formaldehyde-crosslinked ΔpflA or ΔpflB cells carrying the PflA-FLAG or PflB-FLAG plasmid) MDEELENEETKKKKGGSLVIIIVILLFVLLLSIMGVIAWLISSSSSDESEVKEAPKEEAKADKPKVSAPTQRGSDFANIGPMYPLDPFTLNLLSDSGSRYVKCTIELEQNSELLKPELDKKVPVIRDIIIRTLTAKTFEEVSTQKGKERLKDELVGKINEILTDGFIKNVYFTDFVVS", "values": [
      {"measurement": "stoichiometry N", "setting": "[2]", "result": 4}
    ]}
  ]
}
